This note sets out measurements from article PMC3020944, “Structure-Activity Relationship of Cinnamaldehyde Analogs as Inhibitors of AI-2 Based Quorum Sensing and Their Effect on Virulence of Vibrio spp”.

This data set deals with T1, GST-LuxR (Vibrio harveyi, UniProt P21308 1-205).
T1 sequence: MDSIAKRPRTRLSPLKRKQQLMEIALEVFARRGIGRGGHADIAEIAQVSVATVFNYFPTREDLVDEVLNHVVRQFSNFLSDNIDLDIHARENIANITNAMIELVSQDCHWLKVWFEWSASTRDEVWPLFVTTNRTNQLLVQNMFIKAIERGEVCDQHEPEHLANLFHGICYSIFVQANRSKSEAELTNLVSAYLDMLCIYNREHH
Description: fluorescence anisotropy; no inhibitor; Kd value only in Fig. 2B; 30°C; fluorescence polarisation, excitation 480 nm, emission 535 nm; binding buffer, salt and pH not given (as in ref 12); duplex annealed in NaCl-Tris-EDTA. Particulars: protein: recombinant; tags: GST; chain copies: 2; label: 5' fluorescein on strand 1; blunt. Background: Fluorescence polarisation rises when a labelled molecule tumbles more slowly, as on binding a larger partner.

B1: V. harveyi consensus LuxR binding sequence (dsDNA)
DNA 1: TATTGATAAATTTATCAATAA
DNA 2: TTATTGATAAATTTATCAATA
Turning to B1, the binding result is “binds”.
